Paper PMC2116055

Assays:
Assay in all cases: non-reducing SDS-PAGE of immunoprecipitates
[1] = biological target: recombinant rat fibronectin, A form (with EIIIA only), expressed in WEHI231 cells (rat)
[2] = biological target: recombinant rat fibronectin, B form (with EIIIB only), expressed in WEHI231 cells (rat)
[3] = biological target: recombinant rat fibronectin, O form (no EIIIB, EIIIA or V segment), expressed in WEHI231 cells (rat)
[4] = biological target: recombinant rat fibronectin, V form (with the V segment only), expressed in WEHI231 cells (rat)

A stoichiometry N [1] of 2 was found for “recombinant rat fibronectin, A form (with EIIIA only), expressed in WEHI231 cells (natural protein)” in this work.

A stoichiometry N [2] of 2 was found for “recombinant rat fibronectin, B form (with EIIIB only), expressed in WEHI231 cells (natural protein)” in this work.

A percent in the dimeric form [3] of 50% and a stoichiometry N [3] of 2 were found for “recombinant rat fibronectin, O form (no EIIIB, EIIIA or V segment), expressed in WEHI231 cells (natural protein)” in this work.

A percent in the dimeric form [4] of 90% and a stoichiometry N [4] of 2 were found for “recombinant rat fibronectin, V form (with the V segment only), expressed in WEHI231 cells (natural protein)” in this work.
